Measured values: patent US10806804B2, “Compounds having RD targeting motifs and methods of use thereof” (Washington University, priority 2015, dated 2020)
pKd: −log10 of the molar value. Positions of bridges follow the written chain, without caps; N, C: chain ends. Non-standard residues stand in square brackets, D forms with d. Residues, ends and D or L forms follow the SMILES beside them. Primed or numbered codes have the meaning given here. *: point of attachment. Cypate = CC1(C)C(/C=C/C=C/C=C/C=C2/N(CCC(=O)*)c3ccc4ccccc4c3C2(C)C)=[N+](CCC(=O)O)c2ccc3ccccc3c21; Cypate′ = not defined here

Experiments:
[1] = molecular target: T1, albumin (Homo sapiens, UniProt P02768); settings: carbocyanine dyes, previous study; cited from earlier work
[2] = tested on: 4T1 luc; test: in vivo tumor targeting / fluorescence imaging of probes compared with LS301; parameters: species or system Balb/c; settings: Tyr adjacent to the cypate
Protocol: FIG. 5 depicts images showing LS838 for fluorescence and nuclear (PET and or SPECT) imaging. 4T1 luc in Balb/c; 100 μl of 50 μM LS838.
FIG. 6 depicts the distribution of LS838 in tissue at 24 hours.
A variety of probes which have similar sequence compared to LS301 were designed and prepared (Table 1). The probes have different peptide sequences, D-, L-amino acid variations or different groups on C-terminus. The sequences of the probes were tested by LC-MS and the spectroscopy properties were recorded. The performances of the tumor targeting abilities were also tested in vivo. […] It was unexpected that LS838 would be brighter relative to LS301 and it is unknown to us why it does. However, the enhanced brightness allows the use of smaller amounts of material to achieve the same uptake kinetics and accumulation as LS301. FIG. 5 depicts the accumulation of LS838 in vivo and FIG. 6 graphically quantifies the intensity of LS838 in various organs. […] LS838 labeled can be labeled with radionuclides such as radio-iodine, bromine, or fluorine for combined optical and nuclear imaging.

[3] = molecular target: T1, albumin; test: binding of carbocyanine dyes and LS838 to albumin (binding constant K)
Description: The hypothesis is that the binding of cypate to albumin facilitates the internalization of LS838 in PDAC/PanIN lesions. In a previous study, the binding of some carbocyanine dyes to albumin was compared. […] It was also shown that conjugation of peptides to the dyes decreases the K by a factor of ˜10. Using the same method, we determined the K value of LS838 to be 86,000 M^−1.

[4] = tested on: PDAC; parameters: species or system mice; settings: mouse, in vivo
Description: To overcome this problem, the use of peptides as a tumor-trapping mechanism was explored. The highly reducing environment of tumor cells is known to reduce disulfide bonds to thiols, which can trans-thiolate with cysteine-containing intracellular proteins to trap the molecular probe. Therefore, a variety of disulfide-containing peptides were conjugated to cypate and the compounds were screened in mice with advanced stage PDAC. […] Replacement of the D-Cysteine with the natural L-Cysteine residue abrogates this retention.

[5] = in vivo
Description: While this is not a problem in the proposed laparoscopy, the excretion route to the kidneys can be altered by conjugating positively charged moieties (—^+NMe3) or nonionic groups (e.g. PEG) to the free carboxylic acid group of cypate. […] In the unlikely event that the cyanine dyes are photo-unstable, they will be replaced with NIR pyrrolopyrrole cyanine dyes (PPCy), which are highly photostable and have exceptionally high fluorescence quantum yields (up to 80%).

[6] = tested on: pancreas tumor cells; settings: in vivo
[7] = tested on: tumor cells; test: NIR fluorescence microscopy of uptake and trafficking in cells; format: cell-based; settings: dye alone
Protocol: FIG. 8A and FIG. 8B depict uptake of LS838 in 4T1 luc cells showing internalization of the probe in the cells at 1 h (FIG. 8A) and 4 h (FIG. 8B) post incubation. Most cells show localization in the lysosomes at early time points, but the punctate fluorescence became more diffuse at 24 h, indicating translocation to the cytosol. Uptake in the mitochondria was negligible. Color scheme: cyan, Mitotracker; green, lysotracker; and red, LS838. (FIG. 8C) Internalization of LS838 in cells was inhibited by Filipinin, an inhibitor of albumin endocytosis via the gp60 pathway. A similar inhibition was observed when Alexa-680 dye labeled albumin (BSA; blue) was mixed with LS838.
At early time points, LS838 is largely in the lysosomes, but it translocates to the cytosol in a time-dependent manner. […]
Aggresomes are microtubule-catalyzed aggregates of […] that are used to degrade particularly stable and aggregated proteins. […] It will be evaluated if tumors have a lower ability to form aggresomes because of microtubule dysfunction, leading to prolonged retention in tumor cells compared to normal cells. If LS838 induces aggresome formation in tumor cells, but not fibroblasts will first be determined. […] It will also be determined if aggresomes form in vivo using a literature method. […] Aggresome formation will be determined by staining muscle, skin, and tumors for anti-ubiquitin protein. […]

[8] = tested on: PDAC; test: in vivo uptake/contrast in PDAC relative to uninvolved pancreas
Description: A similar trend is observed in vivo, where preferential uptake in PDAC relative to uninvolved pancreas is […]. […] Permutation of the arginine-aspartic acid sequence results in a loss of PDAC-selective uptake. It has been shown that cypate binds to the hydrophobic pockets of albumin, irrespective of the source (human, murine, or bovine). […] Thus, the primary goal of this study is to determine the role of the peptide in tumor cell internalization or retention. Based on preliminary data, this question can be addressed by preparing the following cypate-labeled peptides (underlined amino acids are changes made to LS838): […]

T1 sequence (P02768 25-609, species assumed): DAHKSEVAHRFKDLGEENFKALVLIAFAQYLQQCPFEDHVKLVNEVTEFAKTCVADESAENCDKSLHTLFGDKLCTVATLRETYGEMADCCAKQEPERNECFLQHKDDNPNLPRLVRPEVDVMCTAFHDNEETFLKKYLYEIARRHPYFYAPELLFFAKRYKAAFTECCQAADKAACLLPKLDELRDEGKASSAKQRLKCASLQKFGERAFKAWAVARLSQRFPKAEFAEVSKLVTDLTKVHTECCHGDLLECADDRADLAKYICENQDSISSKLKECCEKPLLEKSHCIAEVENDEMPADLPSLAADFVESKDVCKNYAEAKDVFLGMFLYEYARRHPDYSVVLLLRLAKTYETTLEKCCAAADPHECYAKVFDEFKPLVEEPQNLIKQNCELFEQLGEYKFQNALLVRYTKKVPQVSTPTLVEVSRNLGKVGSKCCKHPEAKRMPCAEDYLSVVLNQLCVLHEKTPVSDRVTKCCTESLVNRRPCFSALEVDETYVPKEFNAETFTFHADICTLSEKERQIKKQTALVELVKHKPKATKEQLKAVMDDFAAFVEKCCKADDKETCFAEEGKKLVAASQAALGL

CC1(C)C(/C=C/C=C/C=C/C=C2\N(CCCCS(=O)(=O)O)c3ccc4ccccc4c3C2(C)C)=[N+](CCCCS(=O)(=O)[O-])c2ccc3ccccc3c21 [ICG, indocyanine green]
binding constant (K) to albumin [1]: 554,000 M^−1

CC1(C)C(/C=C/C=C/C=C/C=C2/N(CCC(=O)N[C@@H](Cc3ccc(O)cc3)C(=O)N[C@@H]3CSSC[C@@H](C(=O)N[C@@H](CCCCN)C(=O)O)NC(=O)[C@@H]4CCCN4C(=O)[C@H](CO)NC(=O)[C@H](CC(=O)O)NC(=O)[C@H](CCCNC(=N)N)NC(=O)CNC3=O)c3ccc4ccccc4c3C2(C)C)=[N+](CCC(=O)O)c2ccc3ccccc3c21 [LS747, Cypate-Tyr-Cyclo(DCys-Gly-Arg-Asp-Ser-Pro-Cys)-Lys-OH] (Cypate-Y[dC]GRDSPCK-OH; disulfide 2-8)
retention in tumors after in vivo administration [2]: rapid loss of retention in tumors

CC1(C)C(/C=C/C=C/C=C/C=C2/N(CCC(=O)N[C@@H]3CSSC[C@@H](C(=O)N[C@@H](Cc4ccc(O)cc4)C(=O)O)NC(=O)[C@@H]4CCCN4C(=O)[C@H](CO)NC(=O)[C@H](CC(=O)O)NC(=O)[C@H](CCCNC(=N)N)NC(=O)CNC3=O)c3ccc4ccccc4c3C2(C)C)=[N+](CCC(=O)O)c2ccc3ccccc3c21 [LS838, Cypate-Cyclo(DCys-Gly-Arg-Asp-Ser-Pro-Cys)-Tyr-OH] (Cypate-[dC]GRDSPCY-OH; disulfide 1-7)
pKd [3]: 4.93 | selective retention in tumors (duration) [4]: over 48 h | clearance route [5]: clears through the liver | time remaining primarily in the tumor cells relative to non-tumor cells [6]: up to 100 h | time to internalization in the pancreas [6]: ≤ 1 h

CC1(C)C(/C=C/C=C/C=C/C=C2/N(CCC(=O)O)c3ccc4ccccc4c3C2(C)C)=[N+](CCC(=O)[O-])c2ccc3ccccc3c21 [cypate]
efflux from tumor cells after transfer to new culture medium [7]: rapidly effluxes | preferential uptake in PDAC relative to uninvolved pancreas [8]: not observed | binding constant (K) to albumin [1]: 556,000 M^−1

Tyr-Cypate-Cyclo(DCys-Gly-Arg-Asp-Ser-Pro-Cys)-Lys-NH2 ({Tyr-Cypate′}-[dC]GRDSPCK-NH2; disulfide 1-7 (inferred)) [LS758]
retention in tumors after in vivo administration [2]: rapid loss of retention in tumors
